Experimental data from patent publication US7169892B2, “Lipid-peptide-polymer conjugates for long blood circulation and tumor specific drug delivery systems” (Astellas Pharma Inc., priority 2003, dated 2007).
The star is where a group is joined. amidopropyl polyoxyethylene methyl ether = C-terminal amidopropyl PEG methyl ether; Fmoc = O=C(OCC1c2ccccc2-c2ccccc21)*

Molecular target: T1, MMP-2 (Homo sapiens, UniProt P08253)
T1 sequence (P08253 110-660): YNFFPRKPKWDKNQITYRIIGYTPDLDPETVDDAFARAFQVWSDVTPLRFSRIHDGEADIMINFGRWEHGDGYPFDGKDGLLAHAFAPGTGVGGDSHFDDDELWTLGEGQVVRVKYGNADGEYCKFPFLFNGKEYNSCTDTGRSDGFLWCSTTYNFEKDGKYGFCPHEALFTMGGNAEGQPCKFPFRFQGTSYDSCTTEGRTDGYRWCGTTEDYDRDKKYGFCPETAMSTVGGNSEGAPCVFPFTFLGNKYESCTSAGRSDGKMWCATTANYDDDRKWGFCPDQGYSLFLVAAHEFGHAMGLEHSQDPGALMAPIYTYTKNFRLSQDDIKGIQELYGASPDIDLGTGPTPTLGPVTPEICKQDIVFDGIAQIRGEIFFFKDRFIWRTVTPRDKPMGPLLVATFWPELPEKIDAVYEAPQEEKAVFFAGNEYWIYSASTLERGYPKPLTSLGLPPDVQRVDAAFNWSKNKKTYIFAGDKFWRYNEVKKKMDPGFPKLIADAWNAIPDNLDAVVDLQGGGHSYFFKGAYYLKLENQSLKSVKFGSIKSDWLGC
Experiment: Degradation of Fmoc-GPQGIAGWG-PEG by MMP-2 (gel filtration)
Type: biochemical
Details: per unit weight of MMP-2 and unit time, beginning (15 minutes), MMP-2 0.34 μg/ml, 37° C., FIG. 4
Experimental: After mixing in 0.5 ml of sample in 0.5 ml of acetonitrile, the mixture was filtered and gel filtration was performed.
The effects on degradation by MMP-2 when PEG bonded with Fmoc-GPQGIAGWG (SEQ ID NO:21) were evaluated.
MMP-2 solution was diluted with Tris buffer. […] The final concentration of MMP-2 was 0.34 μg/ml. […] The Fmoc-GPQGIAGWG-PEG (SEQ ID NO:22) in the filtrate was separated and quantitatively determined by gel filtration.

## 9-fluorenylmethyloxycarbonyl (Fmoc)-glycyl-prolyl-glutamyl-glycyl-isoleucyl-alanyl-glycyl -tryptophanyl-glycyl (Fmoc-Gly-Pro-Gln-Gly-Ile-Ala-Gly-Trp-Gly)-amidopropyl polyoxyethylene methyl ether (Fmoc-GPQGIAGWG-{amidopropyl polyoxyethylene methyl ether}) [Fmoc-GPQGIAGWG-PEG]
  degradation rate by MMP-2 compared with Fmoc-GPQGIAGWG: virtually the same
